Experimental data: the nanobody polyreactivity screen of Harvey et al. (2022)

Test: yeast display, Sf9 membrane polyspecificity reagent, FACS + sequencing; frameworks hold sequencing errors
Method in brief: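 Sorting gates, low and high (top ~1%), were placed on anti-HA fluorescence to track expression and on streptavidin fluorescence to track reagent binding. A clone's polyreactivity label is taken from the gate it came out of. The reagent was 10% biotinylated, detergent-solubilized Sf9 membrane, applied for 1 hour at 4 °C to galactose-induced yeast display cells.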
With “QVQLVESGGGLVQAGGSLRLSCAASGSIFVGYDMGWYRQAPGKERELVAAITGTVSTYYADSVKGRFTISRDNAKNTVYLQMNSLKPEDTAVYYCAAEFVYAYGDGGVYWSWMEYWGQGTQVTVSS” the “polyreactivity (PSR sort gate)” value was “low polyreactivity”. For “QVQLVESGGGLVQAGGSLRLSCAASGSIFVHNAMGWYRQAPGKERELVAAISSNGGRTYYADSVKGRFTISRDNAKNTVYLQMNSLKPEDTAVYYCNAPRFVGLNVYGYDYWGQGTQVTVSS”, the “polyreactivity (PSR sort gate)” value was “high polyreactivity”. In the case of “QVQLVESGGGLVQAGGSLRLSCAASGSIFVHNDMGGYRQAPGTERELVATIDSAGGTYYADSVKGRFTISRDNAKYTVYLQMNSLKPEDTAVYYCAAYGPYVLSIYDYWGQGTQVTVSS”, the “polyreactivity (PSR sort gate)” value is reported as “low polyreactivity”. With “QVQLVESGGGLVQAGGSLRLSCAASGSIFVHYALGWYRQAPGKERELVAAITVTGGTTYYADSVKGRFTISRDNAKNTVYLQMNSLKPEDTAVYYCATRANDGGWTQFGHGYDYWGQGTQVTVSS” the “polyreactivity (PSR sort gate)” value was “low polyreactivity”. In the case of “QVQLVESGGGLVQAGGSLRLSCAASGSIFVINAMGWYRQAPGKERELVAAISYSGTGTYYADSVKGRFPISRDNAKITVYLQMNSLKPEDTAVYYCAADYYYRYRIYDYWGHGTQVTVSS”, the “polyreactivity (PSR sort gate)” value is reported as “low polyreactivity”. With “QVQLVESGGGLVQAGGSLRLSCAASGSIFVIYALGWYRQAPGKERELVARITKSGGTTYYADSVKGRFTISRDNAKNTVYLQMNSLKPDDTAVYYCNVGYGGSSDGGYDYWGQGTQVTVSS” the “polyreactivity (PSR sort gate)” value was “high polyreactivity”. For “QVQLVESGGGLVQAGGSLRLSCAASGSIFVKYAMGWYRQAPGKERELVAAISRRGGSTNYADSVKGRFTISRDNAKNTVYLQMNSLKPEDTAVYYCNAQTVTSYGGDSWGQGTQVTVSS”, the “polyreactivity (PSR sort gate)” value was “high polyreactivity”. For “QVQLVESGGGLVQAGGSLRLSCAASGSIFVLNAMGWYRQAPGKERELLAGITYSGGSTYYADSVKGRFTISRDNAKNTVYLQMNSLKPEDTAVYYCAAPVRRYPYPGRFYYWGQGTQVTVSS”, the “polyreactivity (PSR sort gate)” value was “low polyreactivity”. In the case of “QVQLVESGGGLVQAGGSLRLSCAASGSIFVLNAMGWYTQAPGKERELVAAINKSGGRTYYADSVKGRFTISRDNAKNTVYLQMNSLKPEDTAVDYCAVDISVTGSSNRYGYWGQGTQVTVSS”, the “polyreactivity (PSR sort gate)” value is reported as “high polyreactivity”. For “QVQLVESGGGLVQAGGSLRLSCAASGSIFVLYAMGWYRKAPGKERELVAAISRGVGGTNYADSVKGRFTISRDNAKITVYLQMNSLKPEDTAVYYCAAQTLRWSHYYYWGQGTQVTVSS”, the “polyreactivity (PSR sort gate)” value was “high polyreactivity”. In the case of “QVQLVESGGGLVQAGGSLRLSCAASGSIFVLYAMGWYRQAPGKERELVAAISRGVGGTNYADSVKGRFTISRDNAKNTVYLQMNSLKPEDTAVYYCAAQTLRWSHYYYWGQGTQVTVSS”, the “polyreactivity (PSR sort gate)” value is reported as “high polyreactivity”. For “QVQLVESGGGLVQAGGSLRLSCAASGSIFVNNAMGWYRQAPGKERELVAAITCSTGSTYYADSVKGRFTISRDNAKNTVYLQMNSLKPEDTAVYYCAATSYTATWRYYYWGQGTQVTVSS”, the “polyreactivity (PSR sort gate)” value was “high polyreactivity”. With “QVQLVESGGGLVQAGGSLRLSCAASGSIFVNNAMVWYRQAPGKERELVAAISSRGGSTYYADSVKGRFTISRDNAKNTVYLQMNSLKPEDTAVYYCAAAGYGKVRGDYWGQGTQVTVSS” the “polyreactivity (PSR sort gate)” value was “low polyreactivity”. In the case of “QVQLVESGGGLVQAGGSLRLSCAASGSIFVNYAKGWYRQAPGKERELVAAITRSGGRTYYADSVKGRFTISRDNAKNTVYLQMNSLKPEDTAVYYCNKRRYPYGWGQGTQVNVSS”, the “polyreactivity (PSR sort gate)” value is reported as “high polyreactivity”. For “QVQLVESGGGLVQAGGSLRLSCAASGSIFVNYAMGWYRQAPGKERELVAAITLRGGSTFYADSVKGRFTISRDNAKNTVYLQMNSLKPEDTAVYYCAASSLRYRAYKSLFDYWGQGTQVTVSS”, the “polyreactivity (PSR sort gate)” value was “low polyreactivity”. With “QVQLVESGGGLVQAGGSLRLSCAASGSIFVPYAMGWYRQAPGKERELVAAISSRGGRTYYADSVKGRFTISRDNPKNTVYLQMNSLKPEDTAVYYCNKTAGSHIPRLEYWGQGTQVTVSS” the “polyreactivity (PSR sort gate)” value was “low polyreactivity”. In the case of “QVQLVESGGGLVQAGGSLRLSCAASGSIFVPYAMGWYRQAPGKERELVAAISSSTASTYYADSVKGRFTISRDNAKNTVYLQMNSLKPEDTAVYYCNAEQWDYGVRVAHYDYWGQGTQVTVSS”, the “polyreactivity (PSR sort gate)” value is reported as “low polyreactivity”. In the case of “QVQLVESGGGLVQAGGSLRLSCAASGSIFVQYDMGWYRQAPGKERELVAAITSGSSTNYADSVKGRFTISRDNAKNTVYLQMNSLKPEDTAVYYCAASTPYSYRYDYWGQGTQVTVSS”, the “polyreactivity (PSR sort gate)” value is reported as “low polyreactivity”. With “QVQLVESGGGLVQAGGSLRLSCAASGSIFVRNALGWYRQAPGKEREFVAIRFSGATTYYADSVKGRFTISRDNAKNTVYLQMNSLKPEDTAVYYCAAVARTYGRTSYYWGQGTQVTVSS” the “polyreactivity (PSR sort gate)” value was “high polyreactivity”. In the case of “QVQLVESGGGLVQAGGSLRLSCAASGSIFVRNAMGWYRQAPGKERELVAAITYRGGSTYYADSVKGRFTISRDNAKNTVYFQMNSLKPEDTAVYYCFDVNTDVLSRVYRGWGYYYWGQGTQVTVSS”, the “polyreactivity (PSR sort gate)” value is reported as “low polyreactivity”. In the case of “QVQLVESGGGLVQAGGSLRLSCAASGSIFVRYAKGWYRQAPGKERELVAAIDIGGGTYYADSVKGRFTISRDNAKNTVYLQMNSLKPEDTAVYYCAADGFTEYIYLPYDYWGQGTQVTVSS”, the “polyreactivity (PSR sort gate)” value is reported as “high polyreactivity”. In the case of “QVQLVESGGGLVQAGGSLRLSCAASGSIFVSNAMGWSRQAPGKERELVAAITRSGGSTYYADSVKGRFTISRDNAKNTVYLQMNCLKPEDTAVYYCAAATYRYGYGYWGQGTQVTVSS”, the “polyreactivity (PSR sort gate)” value is reported as “high polyreactivity”. For “QVQLVESGGGLVQAGGSLRLSCAASGSIFVSNAMGWYRQAPGKEREFDAGITRRGGRTYYADSVKGRFTISRDNAKNTVYLQMNSLKPEDTPVYYCAAKSTTSRFDYWGQGTQVTVSS”, the “polyreactivity (PSR sort gate)” value was “high polyreactivity”. In the case of “QVQLVESGGGLVQAGGSLRLSCAASGSIFVSYAMGWYRQAPGKERELVAAISISDGSTYADSVKGRFTISRDNAKNTVYLQMNSLKPEDTAVYYCATYLVYDYAYVAYDYWGQGTQVTVSS”, the “polyreactivity (PSR sort gate)” value is reported as “low polyreactivity”. With “QVQLVESGGGLVQAGGSLRLSCAASGSIFVSYAMGWYRQAPGKERELVAAISSSGTRTYYADSVKGRFTISRDNAKNTVYLQMNSLKPEDTAVYYCAKDSYHTVWGGYWGQGTQVTVSS” the “polyreactivity (PSR sort gate)” value was “high polyreactivity”. In the case of “QVQLVESGGGLVQAGGSLRLSCAASGSIFVSYAMGWYRQAPGKERELVAAITSIGTRTNYADSVKGRFTISRDNAKNTVYLPMNSLKPEDTAVYYCNAPRFWSRHGLRDYWGQGTQVTVSS”, the “polyreactivity (PSR sort gate)” value is reported as “high polyreactivity”. For “QVQLVESGGGLVQAGGSLRLSCAASGSIFVSYAMGWYRQAPGKERELVAVISYSGVSTYYADSVKGRFTISRDNAKNTVYLQMNSLKPEDTAVYYCATRQYGTRHILKYNYWGQGTQVTVSS”, the “polyreactivity (PSR sort gate)” value was “low polyreactivity”. For “QVQLVESGGGLVQAGGSLRLSCAASGSIFVSYAMGWYRQAPGNDRELVAAISGGGVSTYYADSVKGRFSISRDNAKNTVYLQMNSLKPEDTAVYYCATPYVQTGSGYTGDYWGQGTQVTVSS”, the “polyreactivity (PSR sort gate)” value was “high polyreactivity”. In the case of “QVQLVESGGGLVQAGGSLRLSCAASGSIFVSYGMGWYRPAPGKERELVAAISGGGVSTYYADSVKGRFTISRDNAKNTVYLQMNSLIPEDTAVYYCAAEVSFGWGNYGYDYWGQGTQVTVSS”, the “polyreactivity (PSR sort gate)” value is reported as “high polyreactivity”. For “QVQLVESGGGLVQAGGSLRLSCAASGSIFVTYAMGWYRQAPGKERELVAAINYSGGSTYYADSVKGRFTISRDNAKNTVYLQMNSLKPEDTAVYYCAADERVDQGWIRMDYWGQGTQVTVSS”, the “polyreactivity (PSR sort gate)” value was “low polyreactivity”. In the case of “QVQLVESGGGLVQAGGSLRLSCAASGSIFVTYAMGWYRQAPGKERELVAAITWNGGSTYYADSVKGRFTISRDNAKNTVYLQMNSLKPEDTAVYYCAADSRYRGNYWGQGTQVTVSS”, the “polyreactivity (PSR sort gate)” value is reported as “high polyreactivity”. For “QVQLVESGGGLVQAGGSLRLSCAASGSIFVTYAMGWYRQAPGKERELVATITSSGGSTYYADSVKGRFTISRDNAKNTVYLQMNSLKPEDTAVYYCATDFGASVWDYFRRVYYWFGYWGQGTQVTVSS”, the “polyreactivity (PSR sort gate)” value was “low polyreactivity”. For “QVQLVESGGGLVQAGGSLRLSCAASGSIFVVNAMGWYRQAPGKERELGASISQSGDNTYYADSVKGRFTISRDNAKNTVYLQMISLKTEDTAVYYCNAYGGYPEVDYWGQGTQVTVSS”, the “polyreactivity (PSR sort gate)” value was “low polyreactivity”. For “QVQLVESGGGLVQAGGSLRLSCAASGSIFVVNTLGWYRQAPGKEREFVAPISYNGGRTSYADSVKGRFTISRDNAKNTVYLQMNSLKPEDTEVYYCAAGGSVPRAYHISYFTQYDYWGQGTQVTVSS”, the “polyreactivity (PSR sort gate)” value was “low polyreactivity”. In the case of “QVQLVESGGGLVQAGGSLRLSCAASGSIFVWYDMGWYRQAPGKERELVATFSLSGVSTYYADSVKGRFTISRDNAKNTVYLQMNSLKPEDSAVYYCAADFVEQGEDDYWGQGTQVTVSS”, the “polyreactivity (PSR sort gate)” value is reported as “low polyreactivity”. With “QVQLVESGGGLVQAGGSLRLSCAASGSIFVWYVMGWYRQAPGKERELVAAITWSAARTYDADSVKGRFTISRDNAKNTVYLQMNSLKPADTAVYYCAADHVSYQPSSRIFDYWGQGTQVTVSS” the “polyreactivity (PSR sort gate)” value was “low polyreactivity”. With “QVQLVESGGGLVQAGGSLRLSCAASGSIFVYNAMGWYRQAPGKEREMVARITYIGTSTYYADSVKGRFTISRDNAKNSVYLQMNSLKPEDTGVYYCNARRRHEGSPPYGYWGQGTQVTVSS” the “polyreactivity (PSR sort gate)” value was “high polyreactivity”. For “QVQLVESGGGLVQAGGSLRLSCAASGSIFVYNDKGWYRQAPGKERELVADISSGGTTDYADSVKGRFTISRDNAKNTVYLQMNSLKPEDTAVYYCAAESYIEYYLKYDYWGQGTQVTVSS”, the “polyreactivity (PSR sort gate)” value was “low polyreactivity”. In the case of “QVQLVESGGGLVQAGGSLRLSCAASGSIFVYNDMGWYRQAPGKERELVAGIDWSGDRTYADSVKGRFTSSRDNAKNTVYLHMNSLKPEDTAVYYCNADEWRWDEIIPYAVDYWGQGTQVTVSS”, the “polyreactivity (PSR sort gate)” value is reported as “low polyreactivity”. In the case of “QVQLVESGGGLVQAGGSLRLSCAASGSIFVYNPMGSYREPPGKERELVAAISQRGGSTYYADSVKGRFTISRDNANNTVYLQMYSLKPEDTAVYYCAAGPGDSGDDYWGQGTQVTVSS”, the “polyreactivity (PSR sort gate)” value is reported as “low polyreactivity”. In the case of “QVQLVESGGGLVQAGGSLRLSCAASGSIFVYYAMGWYRQAPGKERELVAAISSRGGSTYYADSVKGRFTISRDNAKNTVYLQMNSLKPEDTAVYYCAAYTLDGVNGRVLDDYWGQGTQVTVSS”, the “polyreactivity (PSR sort gate)” value is reported as “low polyreactivity”. For “QVQLVESGGGLVQAGGSLRLSCAASGSIFVYYTMGWYRQAPGKESELVAAISISGTSTYYADSVKGRFTISRDNAKYTVYLQLNSLKPEDTAVYYCAADTFYGEDYWGQGTQVTVSS”, the “polyreactivity (PSR sort gate)” value was “low polyreactivity”. In the case of “QVQLVESGGGLVQAGGSLRLSCAASGSIFVYYTMGWYRQSPGKEREMVAAITYSGGSKYYADSVKGRFTISRDNAKNTVYLQMNRLKPEDTAVYYCNAKSAAHRYVRRHDYWGQGTQVTVSW”, the “polyreactivity (PSR sort gate)” value is reported as “low polyreactivity”.
